# Results taken from patent publication US20180155451A1 (published 2018).
# T1: FcγRIIa R (extracellular domain, C-terminal His tag) (human, UniProt P12318 34-217)
# T1 construct: extracellular domain; Soluble receptor used as analyte in Biacore; also called FcgRIIa R; 2aR; not shown: His tag attached to the C terminus
# T1 sequence (looked up): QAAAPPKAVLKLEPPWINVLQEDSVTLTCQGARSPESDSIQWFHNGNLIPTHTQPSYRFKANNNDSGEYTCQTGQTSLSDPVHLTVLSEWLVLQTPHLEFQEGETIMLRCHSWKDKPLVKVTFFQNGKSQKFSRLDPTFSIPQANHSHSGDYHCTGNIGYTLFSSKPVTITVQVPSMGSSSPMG
# T2: FcγRIIb (extracellular domain, C-terminal His tag) (human, UniProt P31994 43-217)
# T2 construct: extracellular domain; Soluble receptor used as analyte in Biacore; also called FcgRIIb; 2b; not shown: His tag attached to the C terminus
# T2 sequence (looked up): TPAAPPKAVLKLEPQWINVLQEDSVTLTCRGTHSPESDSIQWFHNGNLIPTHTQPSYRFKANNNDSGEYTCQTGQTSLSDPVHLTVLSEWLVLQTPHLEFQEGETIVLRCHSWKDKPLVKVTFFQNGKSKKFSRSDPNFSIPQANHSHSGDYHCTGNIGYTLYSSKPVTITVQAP
# Experiments:
# [1] = target: T1, FcγRIIa R (extracellular domain, …); assay: SPR (Biacore); He/Con for FcγRIIa R divided by He/Con for FcγRIIb
# Protocol: (§1) The heterodimerized antibodies He Abs in which one of the H chains was introduced with an alteration were assayed for their binding activities to each activating FcγR and inhibitory FcγR according to the method described in Example 4. […] The activating FcγRs in FIGS. 26, 27, 28, and 29 are FcγRIa, FcγRIIa (R), FcγRIIa (H), and FcγRIIIa, respectively.
# (§2) Analysis of interaction between objective antibody and the FcγR was carried out using Biacore T100 (GE Healthcare). HBS-EP+ (GE Healthcare) was used as the running buffer, and the measurement temperature was set to 25° C. Chips produced by immobilizing the antigen peptide by the amine coupling method to a Series S Sencor Chip CM5 (GE Healthcare), or alternatively, chips produced by allowing preliminarily biotinylated antigen peptides to interact with and immobilize onto a Series S Sensor Chip SA (certified) (GE Healthcare) were used. Antibodies of interest were captured onto an antigen peptide-immobilized chip, and allowed to interact to each FcγR diluted with running buffer. To regenerate and repeatedly use the chip, the antibodies captured on the chip were washed off by reacting 10 mM glycine-HCl, pH 1.5.
# [2] = target: T1, FcγRIIa R (extracellular domain, …); assay: SPR (Biacore T100), antibody captured on antigen peptide chip, FcγR as analyte; relative binding amount
# Protocol: as §1, §2
# [3] = target: T2, FcγRIIb (extracellular domain, …); assay: as above
# Protocol: as §1, §2
Binder,He_2aR/2b (IIaR/IIb) [1],He/Con_2aR (IIaR binding) [2],He/Con_2b (IIb binding) [3]
"heterodimerized antibody GpH7-A5/GpH7-B3 variant I332_11K/GpL16-k0 (antibody, human IgG1, kappa, Anti-glypican-3 IgG1 with the alteration in only one H chain (the GpH7-B3 chain); also called He Ab) heavy 1: not shown heavy 2: not shown light: DIVMTQSPLSLPVTPGEPASISCQASESLVHSNRNTYLHWYLQKPGQSPQLLIYKVSNRFSGVPDRFSGSGSGTDFTLKISRVEAEDVGVYYCSQNTHVPPTFGQGTKVEIERTVAAPSVFIFPPSDEQLKSGTASVVCLLNNFYPREAKVQWKVDNALQSGNSQESVTEQDSKDSTYSLSSTLTLSKADYEKHKVYACEVTHQGLSSPVTKSFNRGEC",0.61 ratio,43.1 % of control (GpH7-A5/GpH7-B3/GpL16-k0 = 100),70.9 % of control (GpH7-A5/GpH7-B3/GpL16-k0 = 100)
"heterodimerized antibody GpH7-A5/GpH7-B3 variant L328_15Y/GpL16-k0 (antibody, human IgG1, kappa, Anti-glypican-3 IgG1 with the alteration in only one H chain (the GpH7-B3 chain); also called He Ab) heavy 1: not shown heavy 2: not shown light: DIVMTQSPLSLPVTPGEPASISCQASESLVHSNRNTYLHWYLQKPGQSPQLLIYKVSNRFSGVPDRFSGSGSGTDFTLKISRVEAEDVGVYYCSQNTHVPPTFGQGTKVEIERTVAAPSVFIFPPSDEQLKSGTASVVCLLNNFYPREAKVQWKVDNALQSGNSQESVTEQDSKDSTYSLSSTLTLSKADYEKHKVYACEVTHQGLSSPVTKSFNRGEC",0.7 ratio,136 % of control (GpH7-A5/GpH7-B3/GpL16-k0 = 100),193 % of control (GpH7-A5/GpH7-B3/GpL16-k0 = 100)

# The remaining lines, values ahead:
He_2aR/2b (IIaR/IIb) [1],He/Con_2aR (IIaR binding) [2],He/Con_2b (IIb binding) [3],Binder
0.66 ratio,155 % of control (GpH7-A5/GpH7-B3/GpL16-k0 = 100),235 % of control (GpH7-A5/GpH7-B3/GpL16-k0 = 100),"heterodimerized antibody GpH7-A5/GpH7-B3 variant L328_20W/GpL16-k0 (antibody, human IgG1, kappa, Anti-glypican-3 IgG1 with the alteration in only one H chain (the GpH7-B3 chain); also called He Ab) heavy 1: not shown heavy 2: not shown light: DIVMTQSPLSLPVTPGEPASISCQASESLVHSNRNTYLHWYLQKPGQSPQLLIYKVSNRFSGVPDRFSGSGSGTDFTLKISRVEAEDVGVYYCSQNTHVPPTFGQGTKVEIERTVAAPSVFIFPPSDEQLKSGTASVVCLLNNFYPREAKVQWKVDNALQSGNSQESVTEQDSKDSTYSLSSTLTLSKADYEKHKVYACEVTHQGLSSPVTKSFNRGEC"
0.73 ratio,59.4 % of control (GpH7-A5/GpH7-B3/GpL16-k0 = 100),80.8 % of control (GpH7-A5/GpH7-B3/GpL16-k0 = 100),"heterodimerized antibody GpH7-A5/GpH7-B3 variant L328_18N/GpL16-k0 (antibody, human IgG1, kappa, Anti-glypican-3 IgG1 with the alteration in only one H chain (the GpH7-B3 chain); also called He Ab) heavy 1: not shown heavy 2: not shown light: DIVMTQSPLSLPVTPGEPASISCQASESLVHSNRNTYLHWYLQKPGQSPQLLIYKVSNRFSGVPDRFSGSGSGTDFTLKISRVEAEDVGVYYCSQNTHVPPTFGQGTKVEIERTVAAPSVFIFPPSDEQLKSGTASVVCLLNNFYPREAKVQWKVDNALQSGNSQESVTEQDSKDSTYSLSSTLTLSKADYEKHKVYACEVTHQGLSSPVTKSFNRGEC"
